Target: EphA4 Fc (EphA4 receptor extracellular domain fused to a human Fc region)
Test: inhibition of ephrin-A5 AP binding to EphA4

EphA4 Fc (EphA4 receptor extracellular domain fused to a human Fc region), sequence (Q03137 20-547): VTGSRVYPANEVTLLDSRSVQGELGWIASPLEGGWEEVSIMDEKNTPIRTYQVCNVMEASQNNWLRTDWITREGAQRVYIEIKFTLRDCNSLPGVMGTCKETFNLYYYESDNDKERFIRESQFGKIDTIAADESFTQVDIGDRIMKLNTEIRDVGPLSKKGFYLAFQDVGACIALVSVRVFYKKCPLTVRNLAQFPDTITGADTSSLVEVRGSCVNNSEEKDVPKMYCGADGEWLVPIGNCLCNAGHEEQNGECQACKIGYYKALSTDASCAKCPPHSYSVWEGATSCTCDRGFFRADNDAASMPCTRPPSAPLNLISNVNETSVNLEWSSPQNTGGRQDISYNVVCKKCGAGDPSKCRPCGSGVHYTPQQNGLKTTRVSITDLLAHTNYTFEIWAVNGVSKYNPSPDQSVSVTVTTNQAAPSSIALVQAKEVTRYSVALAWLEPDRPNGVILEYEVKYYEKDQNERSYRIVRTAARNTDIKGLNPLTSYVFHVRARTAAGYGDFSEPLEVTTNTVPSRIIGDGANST

concentration that almost completely inhibits ephrin-A5 AP binding [µM]	Substance
10	synthetic APY peptide (…)
1	synthetic KYL peptide (…)
100	synthetic VTM peptide (…)

Reference: patent EP1852441B1, “Agents that modulate EPH receptor activity” (The Burnham Institute, priority 2002, dated 2004)
